Test results taken from patent US20150125421A1.
Values belong to the molecule of their own block, whether it stands above or below them.

What was measured:
Assay in all cases: cell-based or functional assay
[1] = biological target: rat MHC class II RT1B (I-A) glycoproteins (rat)
[2] = biological target: rat IL-4 receptor on cells (rat)
[3] = biological target: rat IL-2 receptor on cells (rat)

B1: IL4.4 (rat IL4/EK/GP73-87/6his fusion protein) (protein)
chain: CNDSPLREIINTLNQVTEKGTPCTEMFVPDVLTATRNTTENELICRASRVLRKFYFPRDVPPCLKNKSGVLGELRKLCRGVSGLNSLRSCTVNESTLTTLKDFLESLKSILRGKYLQSCTSMSGDDDDKGPQKSQRSQDENPVVHHHHHHH
antigenic potency against GPMBP added with saturating IL-4 as a separate molecule [2]: 100 fold | antigenic potency against GPMBP, by antigen concentrations eliciting a half maximal response (RsL.11 proliferation, irradiated splenic APC) [2]: > 100 fold | inhibition by soluble IL-4 of the RsL.11 proliferative response to IL4.4 (irradiated splenic APC) [2]: 10 fold

B2: IL2Ekdel (rat IL2/GP73-87/6his fusion protein) (protein)
chain: APTSSPAKETQQHLEQLLLDLQVLLRGIDNYKNLKLPMMLTFKFYLPKQATELKHLQCLENELGALQRVLDLTQSKSFHLEDAGNFISNIRVTVVKLKGSENKFECQFDDEPATVVEFLRRWIAICQSIISTMTQPQKSQRSQDENPVVHHHHHHH
lowest concentration fully active in MHCII-dependent T cell-mediated killing assay [3]: 100 fM | potency against GPMBP or DHFR-NAg in MHCII-dependent T cell-mediated killing assay (R1-trans T-APC) (orders of magnitude) [3]: > 5

B3: IL4Ekdel (rat IL4/GP73-87/6his fusion protein) (protein)
chain: CNDSPLREIINTLNQVTEKGTPCTEMFVPDVLTATRNTTENELICRASRVLRKFYFPRDVPPCLKNKSGVLGELRKLCRGVSGLNSLRSCTVNESTLTTLKDFLESLKSILRGKYLQSCTSMSPQKSQRSQDENPVVHHHHHHH
antigenic potency against GPMBP (RsL.11 proliferation, irradiated splenic APC) [2]: > 1000 times | potency against GPMBP in MHCII-dependent T cell-mediated killing assay (R1-trans T-APC) [2]: 1000 times

The next lines start with results.

[3H]thymidine incorporation of RsL.11 T cells with 100 nM cytokine/NAg in the presence of OX6 [1]: < 10000 cpm | [3H]thymidine incorporation of RsL.11 T cells with 100 fM-10 nM cytokine/NAg in the presence of OX6 [1]: < 1000 cpm | inhibition of the antigenic reactivity of IL4.4 (RsL.11 proliferation, irradiated splenic APC) (orders of magnitude) [1]: > 5 | inhibition of the response to GPMBP (RsL.11 proliferation, irradiated splenic APC) [1]: 100 fold
Molecule: OX6 anti-I-A (RT1B) IgG1 mAb (antibody)

antigenic potency against GPMBP added with saturating IL-2 as a separate molecule [3]: 100 fold | inhibition by soluble IL-2 of the RsL.11 proliferative response to IL2.7 (irradiated splenic APC) [3]: 10 fold
B4: IL2.7 (rat IL2/EK/GP73-87/6his fusion protein) (protein)
chain: APTSSPAKETQQHLEQLLLDLQVLLRGIDNYKNLKLPMMLTFKFYLPKQATELKHLQCLENELGALQRVLDLTQSKSFHLEDAGNFISNIRVTVVKLKGSENKFECQFDDEPATVVEFLRRWIAICQSIISTMTQGDDDDKGPQKSQRSQDENPVVHHHHHHH
potency against GPMBP in T cell-mediated cytotoxic assay (R1-trans T-APC, irradiated RsL.11), IL-2 added 24 hours after initiation of culture [3]: 1000 times | potency against GPMBP in T cell-mediated cytotoxic assay (R1-trans T-APC, irradiated RsL.11), IL-2 added at the initiation of culture [3]: 32 fold
